Here are results for five molecules from PMC9630320, “Interaction between DLC-1 and SAO-1 facilitates CED-4 translocation during apoptosis in the Caenorhabditis elegans germline” (Cell Death Discovery, 2022).

The target of data set [1] is SAO-1C1(182-205) peptide (crystal) (C. elegans). The experiment in a line: crystal structure; sitting drop vapor diffusion at 16 °C; 0.2 M potassium chloride, 0.05 M HEPES pH 7.5, 35% pentaerythritol propoxylate; 2.4 Å.
The target of data set [2] is purified C-terminal region (residues 182–226) of SAO-1 (ITC) (C. elegans). Nature of the data set: ITC; 25 °C; 50 mM Tris-Cl pH 7.5, 100 mM NaCl; 400 μM DLC-1 injected into 40 μM SAO-1; 13 titrations; one-site binding model. (ITC needs no label: the signal is the heat of the interaction.)
The target of the next data set is SAO-1::RFP (C. elegans). The experiment in a line: FRET or BRET; fluorescence lifetime imaging (FLIM) of the GFP donor in live adult worms; TCSPC. In general terms: In BRET a luciferase serves as donor, and the signal depends on an acceptor being close.
Data set [3] concerns the molecule itself. The experiment in a line: crystal structure; sitting drop vapor diffusion at 16 °C; 0.2 M potassium chloride, 0.05 M HEPES pH 7.5, 35% pentaerythritol propoxylate; 2.4 Å.
The target of another data set is T1, Trx-His6-DLC-1, Q22799.
T1 chain: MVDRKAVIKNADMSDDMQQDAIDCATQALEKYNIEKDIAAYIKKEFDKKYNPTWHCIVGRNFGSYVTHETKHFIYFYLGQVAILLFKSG
The experiment in a line: pull-down (GST pull-down, Western blot with His antibody, band quantification). The settings on record: chain shown with the change;; parent: est. 1.0; read off a plot.

For orientation: Kd means the concentration at which binding is half-saturated. In data set [1], “full-length DLC-1 (ITC and crystallography) (from UniProt Q22799 1-89) (natural protein)” returned a stoichiometry N (DLC-1 per SAO-1) of 2. Also, in data set [2], the Kd amounted to 0.5 µM and the stoichiometry N (DLC-1 per SAO-1) turned out to be 2. “DLC-1::GFP (from UniProt Q22799 1-89) (natural protein)” came in with a GFP mean fluorescence lifetime (τ) with SAO-1::RFP in the data set with SAO-1::RFP (C. elegans) of 2.85 ns.

B1: full-length DLC-1 (ITC and crystallography) (natural protein, C. elegans, UniProt Q22799 1-89, looked up)
chain: MVDRKAVIKNADMSDDMQQDAIDCATQALEKYNIEKDIAAYIKKEFDKKYNPTWHCIVGRNFGSYVTHETKHFIYFYLGQVAILLFKSG
notes: dynein light chain 1 (DLC-1), C. elegans; Same construct as m1; Forms dimers in the crystal
On to B1, for which the binding result in data set [3] is given as “binds”.

B2: GST-SAO-1 V187A; T189A (protein)
chain: MHKNGNNGPVIDTKWHYLGPDSEKYGPYMSKDMLFWLQAGYFNDGLQLKTENEPNYHTLGEWSQLLGTHPFSMPVHSLDATIAQMNSMRPHGAMMMVPPGLQNQFQPPMPMRFPPFLPMPLLHQMNQNGPPMGAQMHSQPPSEPIDAGSLSHTPDSENEFQGHGRKPHHHQQILAHQHIPQMQHANAAADQVVMKSVECQTEPVEISKEQASRVLSELLGQMVIIN
Consider B2, for which the ratio to parent with Trx-His6-DLC-1, Q22799 is 0.57.

B3: GST-SAO-1 C199A; Q200A; T201A (protein)
chain: MHKNGNNGPVIDTKWHYLGPDSEKYGPYMSKDMLFWLQAGYFNDGLQLKTENEPNYHTLGEWSQLLGTHPFSMPVHSLDATIAQMNSMRPHGAMMMVPPGLQNQFQPPMPMRFPPFLPMPLLHQMNQNGPPMGAQMHSQPPSEPIDAGSLSHTPDSENEFQGHGRKPHHHQQILAHQHIPQMQHANVATDQVVMKSVEAAAEPVEISKEQASRVLSELLGQMVIIN
Regarding B3, in the data set with Trx-His6-DLC-1, Q22799, the ratio to parent is 0.15.
